Bounds are passed on as bounds.

The target of this test is T1, recombinant YFV E protein (soluble E, sE; YFV Asibi strain) (Yellow fever virus, Asibi strain, UniProt Q6DV88 286-678).
T1 construct: also called YFV E antigen; YFV E monomer
Description: BLI monovalent (IgG on tip).

T1 sequence (Q6DV88 286-678): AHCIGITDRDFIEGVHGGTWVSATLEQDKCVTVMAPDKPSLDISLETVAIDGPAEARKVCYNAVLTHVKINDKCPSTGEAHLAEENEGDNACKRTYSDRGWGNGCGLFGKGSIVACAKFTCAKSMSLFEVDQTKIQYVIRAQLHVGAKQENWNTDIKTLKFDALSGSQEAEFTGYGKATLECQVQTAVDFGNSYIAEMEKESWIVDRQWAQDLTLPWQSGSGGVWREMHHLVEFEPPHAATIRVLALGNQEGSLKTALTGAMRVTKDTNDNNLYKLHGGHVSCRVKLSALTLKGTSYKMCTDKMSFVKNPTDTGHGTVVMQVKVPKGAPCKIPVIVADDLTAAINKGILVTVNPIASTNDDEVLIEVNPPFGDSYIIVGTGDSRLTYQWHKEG

B1: ADI-42223 (antibody, V domains shown)
VH: EVQLVESGGGLVQPGGSLRLSCAASGFTFSDYYMDWVRQAPGKGLEWVGGIRNKPNSYTTEYAASVKGRFTISRDDSKNSLFLQMNSLKTEDTAVYYCVRLYGDYVAYFDYWGQGTLVTVSS
VL: DIQLTQSPSSLSASVGDRVTITCRASQSISQYLNWYQQKPGKAPKLLISPASSFQSGVPSRFSGSGSGTDFTLTITSLQPEDFATYYCQQSYSTPWTFGQGTKVDIK
notes: full-length IgG; also called Antibody Number 84
Consider B1, for which the Kd – broadly, the constant that tells how readily two partners part at equilibrium – is 1.04 nM.

B2: ADI-49561 (antibody, V domains shown)
VH: EVQLLESGGGVVQPGRSLRLSCVASGFTFSSYGMHWVRQAPGKGLEWVALISYDGSNKYYADSVKGRFTISRDNSKNTLYLQMNSLRAEDTAVYYCAKDQCGGDCTADYWGQGTLVTVSS
VL: QSVLTQPASVSGSPGQSITISCTGTSSDVGGDKYVSWYQQHPGKAPKPMIYEVSNRPSGVSNRFSGSKSGNTASLTISGLQAEDEADYYCSSYTSSSTPVVFGGGTKLTVL
notes: full-length IgG; also called Antibody Number 76
Take B2: the dissociation constant Kd is 242 nM.

B3: ADI-45148 (antibody, V domains shown)
VH: EVQLLESGGGLVQPGRSLRLSCAASGFTFDDYAMHWVRQAPGKGLEWVSGISWNSGSIGYADSVKGRFTISRDNAKNSLYLQMNSLRAEDTALYYCAKDIGDSYGSGSYYLPYGAYYGMDVWGQGTTVTVSS
VL: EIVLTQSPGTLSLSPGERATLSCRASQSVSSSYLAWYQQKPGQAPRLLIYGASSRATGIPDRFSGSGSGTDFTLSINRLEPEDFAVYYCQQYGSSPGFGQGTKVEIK
notes: full-length IgG; also called Antibody Number 72
Regarding B3, the Kd was greater than 100 nM.

B4: ADI-42233 (antibody, V domains shown)
VH: EVQLVESGGGLVKPGGSLRLSCVASGFTFSRYSMNWVRQAPGKGLEWVSSISHSGRYIYYADSEKGRFTISRDNAKNSLYLQMNSLRAEDTAVYYCARDHYFDSSGDYLSYYYNGMDVWGQGTTVTVSS
VL: ETTLTQSPGTLSLSPGERATLSCRASRSVSGNYLAWYQQKPGQAPRLLIYAASSRATGIPDRFSGGGSGTHFTLTISRLEPEDFAVYYCQQYGSSPRAFGQGTKVEIK
notes: full-length IgG; also called Antibody Number 66
Take B4: the Kd stood at 2.98 nM.

B5: ADI-49145 (antibody, V domains shown)
VH: EVQLLESGGGLVQPGGSLRLSCAASGFIFSDYYMDWVRQTPGKGPEWVGRITNRPNSYTTEYAASVKGRFTISRDDSTNSLFLHMNSLKTEDTAVYYCTRITGDRYWYLDLWGRGTLVTVSS
VL: DIVLTQSPSSLSASVGDRVTITCRASQSINNYLNWYQQKPGKAPNLLIFGASTLQSGVPSRFTGSGSGTVFTLTISSLQRDDFVIYYCQQTYSASGSFGQGTKVEIK
notes: full-length IgG; also called Antibody Number 69
Consider B5, for which the dissociation constant (Kd) is 1.05 nM.

B6: ADI-48435 (antibody, V domains shown)
VH: QVQLVQSGAEVKKPGASVKVSCKASGYTFTSYGISWVRQAPGQGLEWMGWISAYNGNTNYAQKLQGRVTMTTDTSTSTAYMELRSLRSDDTAVYYCARRGTTVTRFGVIQYYYGMDVWGQGTTVTVSS
VL: QSVLTQPASVSGSPGQSITISCTGTSSDVGGYNYVSWYQQHPGKAPKLMIYDVSNRPSGVSNRFSGSKSGNTASLTISGLQAEDEADYYCSSYTSSSTLVFGGGTQLTVL
notes: full-length IgG; also called Antibody Number 85
Take B6: the Kd was greater than 100 nM.

B7: ADI-49044 (antibody, V domains shown)
VH: QVQLVESGGGVVQPGRSLRLSCAASGFAFSSYGMHWVRQAPGKGLEWVAGMRFDGTKIYYADSVKGRFTISRDNSKNTLYLQMNSLRAEDTAVYFCARDLEVGAEYIYYYYGMDVWGQGTTVTVSS
VL: QPVLTQPPSASGTPGQRVTISCSGSSSNIGTNTVSWYQQLPGTAPQLLVFSRTQRPSGVPDRFSGSKSGTSASLAISGLQSDDEADYYCAAWDDSRNGWVFGGGTKLTVL
notes: full-length IgG; also called Antibody Number 8
Consider B7, for which the equilibrium dissociation constant (Kd) was found to be 1.88 nM.

B8: ADI-45078 (antibody, V domains shown)
VH: EVQLVESGGGLIQPGGSLRLSCAASGFSFSSHAMTWVRQAPGKGLQWVSSIRGSDRTTNYADSVKGRFTVSRDNSKNTLYLQMNSLRAEDTAIYYCAKYYDSSGYYYFDHWGQGTLVTVSS
VL: DIRMTQSPSTLSASIGDRVTITCRASQSISDWLAWYLQKPGKAPSLLIYRASSLETGVPSRFSGRGSGTEFTLTISSLQPDDFGTYYCQQYNRDPYTFGQGTKVDIK
notes: full-length IgG; also called Antibody Number 82
Turning to B8, the Kd is 5.88 nM.

B9: ADI-42187 (antibody, V domains shown)
VH: EVQLLESGGGLVKPGGSLRLSCAASGFTFSSYSMNWVRQAPGKGLEWVSSISSRSSFMYYADSVKGRFTISRDNAKNSLYLQMNSLRVEDTAVYYCARDNSEVEDYGDYVLYHYYGMDVWGQGTTVTVSS
VL: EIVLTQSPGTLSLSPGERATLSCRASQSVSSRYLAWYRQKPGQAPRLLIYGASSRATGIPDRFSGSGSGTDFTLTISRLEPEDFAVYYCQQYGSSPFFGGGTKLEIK
notes: full-length IgG; also called Antibody Number 75
For B9, the Kd was 4.01 nM.

B10: ADI-46729 (antibody, V domains shown)
VH: EVQLVESGPGLVKPSQTLSLTCTVSGGSISSGSYYWSWIRQPAGKGLEWIGRIYTSGSTNYNPSLKSRVTMSVDTSKNQFSLKLSSVTAADTAVYYCARGWFGYSNYGLYYYYGMDVWGQGTTVTVSS
VL: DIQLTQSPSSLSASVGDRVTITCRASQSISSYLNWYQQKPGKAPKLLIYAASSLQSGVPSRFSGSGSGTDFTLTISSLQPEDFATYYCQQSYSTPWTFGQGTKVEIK
notes: full-length IgG; also called Antibody Number 70
Consider B10, for which the dissociation constant Kd was greater than 100 nM.

B11: ADI-48899 (antibody, V domains shown)
VH: EVQLVESGGGLVQPGGSLRLSCAASGFIYTNYAMYWVRQAPGKGLEWVSAISGSGGITYYADSVKGRFTISRDNSKNTLYLQMNSLRAEDKAVYYCAKDGVTTINGWFHFEYWGQGTLVTVSS
VL: DIQMTQSPSTLSASVGDRVTITCRASQSISSWLAWYQQKPGKAPKLLIYQASSLESGVPSRFSGSESGTEFTLTISSLQPDDFATYYCQQYNSFPFTFGPGTKVEIK
notes: full-length IgG; also called Antibody Number 68
Regarding B11, the Kd was 434 nM.

B12: ADI-49168 (antibody, V domains shown)
VH: EVQLLESGGGLVQPGGSLRLSCAASGFTFSSYAMSWVRQATGRGLEWVSSIRSSGGRTEYADSVKGRFTISRDNSKNTLYLQMDSLRAEDTALYYCAKHYDSSGYYYEDYWGQGTLVTVSS
VL: DIVLTQSPSTLSASVGDRVTITCRASQSISDWLAWYQQKPGKAPGLLIYRASGLESGVPSRFSGSGSGTEFTLTISSLQPDDFATYYCHQYKDFPWTFGQGTKVDIK
notes: full-length IgG; also called Antibody Number 73
As to B12, the Kd stood at 24.1 nM.

B13: ADI-45136 (antibody, V domains shown)
VH: EVQLVESGGGVVRPGRSLRLSCAASGFTFSSYGMHWVRQAPGKGLEWVAVIRFDGSNTVYADSVKGRFTISRDNSKNTLYLQMNSLRAEDTAVYYCAKTYDSNAYYYLDYWGQGTLVTVSS
VL: DIVMTQTPSTLSASVGDRVTVTCRASQSISDWLAWYQQKAGKAPKLLIYRASSLESGVPPRFSGSGSGTEFTLTISSLRPDDFATYYCQQYNRYPYTFGQGTKVDIK
notes: full-length IgG; also called Antibody Number 80
With B13, the Kd came to 16.8 nM.

B14: ADI-50535 (antibody, V domains shown)
VH: QVQLVQSGAEVKKPGASVKVSCKASGYTFTSYGISWVRQAPGQGLEWMGWISAYNGNTNYAQKLQGRVTMTTDTSTSTAYMELRSLRSDDTAVYYCARRPYYYGSRRPAGHMDVWGQGTTVTVSS
VL: NFMLTQPHSVSESPGKTVTISCTRSSGSIASNYVQWYQQRPGSSPTTVIYEDNQRPSGVPDRFSGSIDSSSNSASLTISGLKTEDEADYYCQSYDSSNVVFGGGTKVTVL
notes: full-length IgG; also called Antibody Number 78
As for B14, the Kd was greater than 100 nM.

B15: ADI-42219 (antibody, V domains shown)
VH: QVQLVESGGGVVQPGRSLRLSCAASGFTFSSLAMHWVRQAPGKGLEWVATISYDVSNKYYADSVKGRFTISRDNSKNTLFLQMNSLRPEDTAVYYCARGYTGYDGFDYWGQGTLVTVSS
VL: QPVLTQPRSVSGSPGQSVTISCTGTSSDVGGYNYVSWYQQHPGKAPKLMISDVSKRPSGVPDRFSGSKSGNTASLTISGLQADDEADYYCCSYATNYGVVFGGGTKVTVL
notes: full-length IgG; also called Antibody Number 77
Take B15: the Kd came to 4.05 nM.

B16: ADI-46722 (antibody, V domains shown)
VH: EVQLVESGPGLVKPSGTLSLTCAVSGGSISSSNWWSWVRQPPGKGLEWIGEIYHSESTNYNPSLKSRVTISVDKSKNQFSLKLSSVTAADTAVYYCARDFWSGSNWFDPWGQGTLVTVSS
VL: QSALIQPPSVSAAPGQKVTISCSGSSSNIGNNYVSWYQQLPGTAPKLLIYDNNKRPSGIPDRFSGSKSGTSATLGITGLQTGDEADYYCGTWDNSLGVVFGGGTQLTVL
notes: full-length IgG; also called Antibody Number 71
As to B16, the Kd is greater than 100 nM.

B17: ADI-49162 (antibody, V domains shown)
VH: EVQLVESGGTFLQPGGSLRLSCVASGFTFGTHAMSWVRQAPGKGLEWVSTFSGSGGRTYYADSVKGRFTISRDNSKSTLYLEMSALRAEDTAVYYCAKFYDSSGYYYFDYWGQGTLVTVSS
VL: DIQLTQSPSTLSASVGDRVTVTCRASQNVGGWLAWYQQKPGKAPKLLIFQASRLENGVPSRFSANASGTEFTLTIGSLQPDDFATYYCQQYNTYPYTFGQGTKVDIK
notes: full-length IgG; also called Antibody Number 83
As for B17, the Kd was 2.19 nM.

B18: ADI-42191 (antibody, V domains shown)
VH: EVQLVESGGGLVQPGGSLRLSCAASGFTFSDHYMDWVRQAPGKGLEWVGRTRNKPNSHTTEYAASVKGRFTISRDDSKNSLYLQMNSLQTEDTAVYYCARVYGGPDDYWGQGTLVTVSS
VL: EIVMTQSPSSLSASVGDRVTITCRASQSIRSYLNWYQQKPGKAPKLLIYAASSLQSGVPLRFSGSGSGTDFTLTISSLQPEDFATYYCQQSSITPPTFGQGTKLEIK
notes: full-length IgG; also called Antibody Number 67
Regarding B18, the Kd came out at 2.13 nM.

B19: ADI-45128 (antibody, V domains shown)
VH: QVQLQESGPGLVRPSQTLSLTCTVSGGAISSGDYYWSWVRQPPGKGLEWIGYIHYSGTTYNNPSLKSRVTIAVDTSKNQFSLKLSSVTAADTAVYFCGRDSDKNYFDYWGQGTLVTVSS
VL: QSVLTQPPSVSAAPGQKVTISCSGSSSNIGNNDVSWYQQLPGRAPKLLIYDNNKRPSGIPDRFSGSKSGTSATLGITGLQTGDEADYYCGAWDSSLSAHVVFGGGTKVTVL
notes: full-length IgG; also called Antibody Number 79
B19: the Kd amounted to 3.54 nM.

B20: ADI-42189 (antibody, V domains shown)
VH: EVQLVESGGGVVQPGWSLRLSCAVSGFTFSSYAMHWVRQAPGKGLEWVAVISYDGSYKWYADSVKGRFTISRDNSKNTVYLQMNSLRAEDTAVYYCASLWFIVMTMSKNPETDYWGQGTLVTVSS
VL: DIQVTQSPSSLSASVGDRVTITCRASQGIRNDLAWYQQRPGKAPKRLIYAASSLQSGVPSRFSGSGSGTEFTLTISSLQPEDFATYYCLQHHSYPWTFGQGTKVEIK
notes: full-length IgG; also called Antibody Number 81
As to B20, the Kd stood at 2.4 nM.

B21: ADI-49033 (antibody, V domains shown)
VH: EVQLVESGGGLVQPGGSLRLSCAASGLIFRNYAMSWVRQAPGKGLEWVSSFSGSGGSAYYADSVKGRFTISRDNSKSTVYLQMNRLRVEDTAVYYCAKDMAVSVHRGWFDDWGQGTLVTVSS
VL: EIVMTQSPSALSASVRDRVTITCRASQSIGSDLNWYQQRPGKAPMLLIYAATGLQSGVPSRFSGSGSGTDFTLTISNLQPEDFATYYCQQSYSPPMYTFGQGTKVDIK
notes: full-length IgG; also called Antibody Number 7
With B21, the Kd came out at 18 nM.

B22: ADI-49040 (antibody, V domains shown)
VH: EVQLVESGGALVHPGGSLGLSCAASGFTFSDHYMDWVRQAPGKGLEWVGRIRNKPNSYATQYAASVKGRFTISRDDSKKSLYLQMNSLNTEDTAVYYCARVRDGEYDYWGQGTLVTVSS
VL: DIQMTQSPSTLSASVGDRVTITCRASQSISTWLAWYQLKPGKAPKLLIYKASNLQSGVPSRFSGSGSGTEFTLTISSLQPDDFATYYCQQYNSYSPWGQGTKLEIK
notes: full-length IgG; also called Antibody Number 74
In the case of B22, the Kd worked out at 0.999 nM.

The values are drawn from patent US20240218054A1 (MABLOC, published 2024).
